Sequences and labels used below:
B1: BAK lacking its transmembrane domain (BAKΔTM), wild type [human] / itself (parent)
chain: EPALPSASEEQVAQDTEEVFRSYVFYRHQQEQEAEGVAAPADPEMVTLPLQPSSTMGQVGRQLAIIGDDINRRYDSEFQTMLQHLQPTAENAYEYFTKIATSLFESGINWGRVVALLGFGYRLALHVYQHGLTGFLGQVTRFVVDFMLHHCIARWIAQRGGWVAALNLGNG

The variants in this assay derive from B1. Description: size exclusion chromatography (BAK oligomerization assay). Conditions: with itself; with Eltro (3.4 mM in panels a, b); CHAPS buffer, 1 h at 25 °C; Superdex75; parent: 54; read off a plot. Background: SEC sorts molecules by how far they enter the pores of the column.
Take EPALPSASEEQVAQDTEEVFRSYVFYRHQQEQEAEGVAAPADPEMVTLPLQPSSTMGQVGRQLAIIGDDINRRYDSEFQTMLQHLQPTAENAYEYFTKIATSLFESGINWGRVVALLGFGYRLALHVYQHGLTGFLGQVTAFVVDFMLHHCIARWIAQRGGWVAALNLGNG [chain 1 R141A]: the screen value was determined as 42%.

Turning to EPALPSASEEQVAQDTEEVFRSYVFYRHQQEQEAEGVAAPADPEMVTLPLQPSSTMGQVGRQLAIIGDDINRRYDSEFQTMLQHLQPTAENAYEYFTKIATSLFESGINWGRVVALLGFGYRLALHVYQHGLTGFLGQVTEFVVDFMLHHCIARWIAQRGGWVAALNLGNG [chain 1 R141E], the screen value was 39%.

The record behind these values is paper PMC10314921, “Eltrombopag directly activates BAK and induces apoptosis” (Cell Death & Disease, 2023).
